Results as given in US20250361317A1 (Janssen / Centocor, published 2025).

B1: EMVBB27 (bispecific antibody, human IgG1, kappa, L234A L235A)
heavy chain 1 (Vb17 arm, B17B21-LC-N33S Fab): QVQLQESGPGLVKPSETLSLTCTVSGYSITSGYFWNWIRQPPGKGLEWIGYISYDGSNNYNPSLKSRVTISRDTSKNQFSLKLSSVTAADTAVYYCASPSPGTGYAVDYWGQGTLVTVSSASTKGPSVFPLAPSSKSTSGGTAALGCLVKDYFPEPVTVSWNSGALTSGVHTFPAVLQSSGLYSLSSVVTVPSSSLGTQTYICNVNHKPSNTKVDKKVEPKSCDKTHTCPPCPAPEAAGGPSVFLFPPKPKDTLMISRTPEVTCVVVSVSHEDPEVKFNWYVDGVEVHNAKTKPREEQYNSTYRVVSVLTVLHQDWLNGKEYKCKVSNKALPAPIEKTISKAKGQPREPQVYTLPPSREEMTKNQVSLWCLVKGFYPSDIAVEWESNGQPENNYKTTPPVLDSDGSFFLYSKLTVDKSRWQQGNVFSCSVMHEALHNRFTQKSLSLSPGK
light chain 1 (Vb17 arm, B17B21-LC-N33S Fab): DIQMTQSPSSLSASVGDRVTITCRSSQSLVHSSGNTYLHWYQQKPGKAPKFLIYKVSNRFSGVPSRFSGSGSGTDFTLTISSLQPEDFATYYCSQSTHVPFTFGQGTKLEIKRTVAAPSVFIFPPSDEQLKSGTASVVCLLNNFYPREAKVQWKVDNALQSGNSQESVTEQDSKDSTYSLSSTLTLSKADYEKHKVYACEVTHQGLSSPVTKSFNRGEC
heavy chain 2 (EMR2 arm, EMR2B57-LH-spFv fused to Fc): QSALTQPASVSGSPGQSITISCTGTSSDVGGYNYVSWYQQHPGCAPKLMIYEVSYRPSGVSNRFSGSKSGNTASLTISGLQAEDEADYYCSSYTSSSTYVVFGGGTKLTVLGGGSGGSGGCPPCGGSGGEVQLVESGGGLVQPGGSLRLSCAASGFTFRSYWMHWVRQAPGKGLVWVSRISSGGSTTNYADSVKGRFTISRDNAKNTLYLQMNSLRAEDTAIYYCARGDNYYDSPYFDYWGCGTLVTVSSEPKSSDKTHTCPPCPAPEAAGGPSVFLFPPKPKDTLMISRTPEVTCVVVSVSHEDPEVKFNWYVDGVEVHNAKTKPREEQYNSTYRVVSVLTVLHQDWLNGKEYKCKVSNKALPAPIEKTISKAKGQPREPQVYTLPPSREEMTKNQVSLSCAVKGFYPSDIAVEWESNGQPENNYKTTPPVLDSDGSFFLVSKLTVDKSRWQQGNVFSCSVMHEALHNHYTQKSLSLSPGK
notes: also called EMVBB27.003; TPP000263194
B2: EMVBB6 (bispecific antibody, human IgG1, lambda, L234A L235A)
heavy chain 1 (Vb17 arm, B17B852-G34R-LH-spFv fused to Fc): DIQMTQSPSSLSASVGDRVTITCRSSQSLVHSNRNTYLHWYQQKPGCAPKLLIYKVSNRFSGVPSRFSGSGSGTDFTLTISSLQPEDFATYYCSQSTHVPFTFGQGTKLEIKGGGSGGSGGCPPCGGSGGQVQLQESGPGLVKPSETLSLTCTVSGYSITSGYFWNWIRQFPGKGLEWMGYISYDGSNNYNPSLKSRITISRDTSKNQFSLKLSSVTAADTAVYYCASPSPGTGYAVDYWGCGTTVTVSSEPKSSDKTHTCPPCPAPEAAGGPSVFLFPPKPKDTLMISRTPEVTCVVVSVSHEDPEVKFNWYVDGVEVHNAKTKPREEQYNSTYRVVSVLTVLHQDWLNGKEYKCKVSNKALPAPIEKTISKAKGQPREPQVYTLPPSREEMTKNQVSLWCLVKGFYPSDIAVEWESNGQPENNYKTTPPVLDSDGSFFLYSKLTVDKSRWQQGNVFSCSVMHEALHNHYTQKSLSLSPGK
heavy chain 2 (EMR2 arm, EMR2B361 Fab): EVQLVQSGGGLVKPGGSLRLSCVASGFIFRSYSMNWVRQAPGKGLEWVSSISSSSSYIYYADSVKGRFTISRDNAKNSLYLQMDSLRAEDTAVYYCARREYGGPFDYWGQGTLVTVSSASTKGPSVFPLAPSSKSTSGGTAALGCLVKDYFPEPVTVSWNSGALTSGVHTFPAVLQSSGLYSLSSVVTVPSSSLGTQTYICNVNHKPSNTKVDKKVEPKSCDKTHTCPPCPAPEAAGGPSVFLFPPKPKDTLMISRTPEVTCVVVSVSHEDPEVKFNWYVDGVEVHNAKTKPREEQYNSTYRVVSVLTVLHQDWLNGKEYKCKVSNKALPAPIEKTISKAKGQPREPQVYTLPPSREEMTKNQVSLSCAVKGFYPSDIAVEWESNGQPENNYKTTPPVLDSDGSFFLVSKLTVDKSRWQQGNVFSCSVMHEALHNRFTQKSLSLSPGK
light chain 2 (EMR2 arm, EMR2B361 Fab): QSVLTQPPSVFAAPGEKVTISCSGSSSNIGNDYVSWYQQLPGTAPKLLIYDNNKRPSGIPDRFSGSKSGTSATLGITGLQTGDEADYYCGTWDSSLSAGYVFGTGTKVTVLGQPKAAPSVTLFPPSSEELQANKATLVCLISDFYPGAVTVAWKADSSPVKAGVETTTPSKQSNNKYAASSYLSLTPEQWKSHRSYSCQVTHEGSTVEKTVAPTECS
notes: also called TPP000258023
B3: EMVBB7 (bispecific antibody, human IgG1, lambda, L234A L235A)
heavy chain 1 (Vb17 arm, B17B852-G34R-LH-spFv fused to Fc): B2 heavy chain 1 (Vb17 arm, B17B852-G34R-LH-spFv fused to Fc)
heavy chain 2 (EMR2 arm, EMR2B410 Fab): EVQLVESGGGLVQPGGSLRLSCAASGFTFSSYWMHWVRQVPGKGLVWVSRISSHGSSTSYADSVKGRFTISRDNAKNALYLQMNSLRAEDTAVYYCARGGNYYDSPYFDYWGQGTLVTVSSASTKGPSVFPLAPSSKSTSGGTAALGCLVKDYFPEPVTVSWNSGALTSGVHTFPAVLQSSGLYSLSSVVTVPSSSLGTQTYICNVNHKPSNTKVDKKVEPKSCDKTHTCPPCPAPEAAGGPSVFLFPPKPKDTLMISRTPEVTCVVVSVSHEDPEVKFNWYVDGVEVHNAKTKPREEQYNSTYRVVSVLTVLHQDWLNGKEYKCKVSNKALPAPIEKTISKAKGQPREPQVYTLPPSREEMTKNQVSLSCAVKGFYPSDIAVEWESNGQPENNYKTTPPVLDSDGSFFLVSKLTVDKSRWQQGNVFSCSVMHEALHNRFTQKSLSLSPGK
light chain 2 (EMR2 arm, EMR2B410 Fab): QSALTQPASVSGSPGQSITISCTGTSSDVGGYNYVSWYQQHPGKAPKLMIYEVSYRPSGISNRFSGSKSGDTASLTISGLQAEDEADYYCSSYTSSSTYVVFGGGTKVTVLGQPKAAPSVTLFPPSSEELQANKATLVCLISDFYPGAVTVAWKADSSPVKAGVETTTPSKQSNNKYAASSYLSLTPEQWKSHRSYSCQVTHEGSTVEKTVAPTECS
notes: also called TPP000258024

Key:
[1] = target: T1, human EMR2 (ADGRE2, CD312) on cells (human, UniProt Q9UHX3 24-823); test: flow cytometry, median AF647 of live cells, MOLM 13 cells, 1 hour at 37 C
T1 construct: also called huEMR2 full length; Adhesion G protein-coupled receptor E2
T1 sequence: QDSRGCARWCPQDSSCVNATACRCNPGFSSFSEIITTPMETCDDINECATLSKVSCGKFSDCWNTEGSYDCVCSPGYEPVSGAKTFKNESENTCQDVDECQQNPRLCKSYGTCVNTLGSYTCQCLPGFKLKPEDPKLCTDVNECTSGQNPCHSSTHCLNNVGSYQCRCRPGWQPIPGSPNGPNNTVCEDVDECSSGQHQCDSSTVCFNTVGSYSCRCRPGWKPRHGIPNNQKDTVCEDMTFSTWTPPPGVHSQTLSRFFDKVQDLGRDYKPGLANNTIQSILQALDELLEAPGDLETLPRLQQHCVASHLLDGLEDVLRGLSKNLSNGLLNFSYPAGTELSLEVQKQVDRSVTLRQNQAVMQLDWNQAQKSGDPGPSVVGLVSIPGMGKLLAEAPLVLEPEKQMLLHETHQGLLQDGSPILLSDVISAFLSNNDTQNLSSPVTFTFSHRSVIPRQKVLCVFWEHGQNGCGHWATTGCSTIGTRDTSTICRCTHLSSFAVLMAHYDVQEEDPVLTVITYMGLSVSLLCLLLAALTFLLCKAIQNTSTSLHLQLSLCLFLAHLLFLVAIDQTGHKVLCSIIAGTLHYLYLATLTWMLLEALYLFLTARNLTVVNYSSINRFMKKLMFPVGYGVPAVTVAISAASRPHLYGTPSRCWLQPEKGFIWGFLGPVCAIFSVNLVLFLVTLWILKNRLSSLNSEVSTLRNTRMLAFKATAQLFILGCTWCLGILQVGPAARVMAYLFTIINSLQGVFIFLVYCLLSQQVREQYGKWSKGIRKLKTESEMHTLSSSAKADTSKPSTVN

[2] = target: T2, T-cell receptor with TRBV19 (Vβ17) beta chain on human T cells (human); test: flow cytometry, % TRBV19+ T cells of live human pan-T cells, 1 hour at 37 C
T2 construct: whole, on cells; also called Vb17; TRBV19+ T cells
T2 sequence (A0A075B6N1 22-114): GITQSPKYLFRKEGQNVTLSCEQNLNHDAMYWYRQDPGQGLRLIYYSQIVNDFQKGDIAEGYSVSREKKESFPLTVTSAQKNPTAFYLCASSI

[3] = target: T1, human EMR2 (ADGRE2, CD312) on cells; test: flow cytometry, median AF647 of live cells, OCI-AML5 WT cells, 1 hour at 37 C
[4] = target: T3, EMR2W4, huEMR2 GAIN domain + GPS, D261-T540, with C-terminal Avi/6x His tag (human); test: SPR, row 'SPR (KD) / EMR2' of the Forced Degradation table; stress condition of the KD and EMR2 construct not named on the sheet
T3 construct: also called Human EMR2 GAIN domain protein
T3 chain: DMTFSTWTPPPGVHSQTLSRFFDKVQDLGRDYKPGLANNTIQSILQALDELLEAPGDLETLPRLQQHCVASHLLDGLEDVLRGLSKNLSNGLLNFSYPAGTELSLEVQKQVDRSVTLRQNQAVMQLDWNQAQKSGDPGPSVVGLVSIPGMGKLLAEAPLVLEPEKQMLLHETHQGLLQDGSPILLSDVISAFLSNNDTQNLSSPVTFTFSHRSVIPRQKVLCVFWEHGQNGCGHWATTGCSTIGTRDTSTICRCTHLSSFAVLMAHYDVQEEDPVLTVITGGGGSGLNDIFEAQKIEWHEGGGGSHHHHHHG

Binder	EC50 [1] [nM]	Max (MFI) [1] [MFI]	EC50 [2] [nM]	Max % TRV19+ [2] [%]	EC50 [3] [nM]	Max (MFI) [3] [MFI]	Kd [4] [nM]
B1	301	420000	8.03	6.62	296	250000	
B2	12.6	330000	14.5	9.15	15.2	250000	0.186
B3							1.47
